According to patent US12517112B2, “Immune cell organoid co-cultures” (Koninklijke Nederlandse Akademie van Wetenschappen, priority 2017, dated 2026):

Legend:
CD274 (PD-L1) = assay: PD-L1 expression in colon organoid lines upon IFN-γ stimulation (qPCR and flow cytometry); format: cell-based; conditions: organoids treated with 20 ng/mL recombinant human IFN-γ
Text: (§1) Cells were sorted as single cells into 96-well plates using a BD FACS Aria (BD Biosciences) cytometer. For flow cytometry, the following antibodies were used (all anti-human): CD8-PE (clone RPA-T8), CD45-PerCP-Cy5.5 (2D1), CD274 (PD-L1)-APC (MIH1) (all BD Biosciences), CD279 (PD-1)-PE (EH12.2H7, Biolegend), HLA-A2^− PE (BB7.2, Santa Cruz).

HLA-A2 = HLA-A2 expression on CRC organoid lines with and without IFN-γ stimulation (flow cytometry); format: cell-based; conditions: HLA-A2 negative CRC organoids, 20 ng/ml recombinant human IFN-γ
Protocol: FIG. 10. HLA-A2 expression on clonally expanded HLA-A2^+ and HLA-A2^− CRC organoid lines. […] Flow cytometry analysis of HLA-A2 expression on normal (left panel), HLA-A2^+ CRC (middle panel) and HLA-A2^− CRC (right panel) lines with and without stimulation with 20 ng/ml recombinant human IFN-γ.
as §1

B1: IFN-γ: recombinant human interferon gamma used to stimulate organoids (20 ng/mL) (protein, UniProt P01579 24-161, looked up)
Interferon gamma: QDPYVKEAENLKKYFNAGHSDVADNGTLFLGILKNWKEESDRKIMQSQIVSFYFKLFKNFKDDQSIQKSVETIKEDMNVKFFNSNKKKRDDFEKLTNYSVTDLNVQRKAIHELIQVMAELSPAAKTGKRKRSQMLFRG
With B1 the “PD-L1 expression on transcript and protein level” value (CD274 (PD-L1)) was “dramatically upregulated” and the HLA-A2 re-expression (HLA-A2) was “did not trigger HLA-A2 re-expression”.
